# Where two headings read alike, the source gives them in different places.
# T1: His6-MBP-Ctc1 (human, UniProt Q2NKJ3 1-1217)
# T1 sequence: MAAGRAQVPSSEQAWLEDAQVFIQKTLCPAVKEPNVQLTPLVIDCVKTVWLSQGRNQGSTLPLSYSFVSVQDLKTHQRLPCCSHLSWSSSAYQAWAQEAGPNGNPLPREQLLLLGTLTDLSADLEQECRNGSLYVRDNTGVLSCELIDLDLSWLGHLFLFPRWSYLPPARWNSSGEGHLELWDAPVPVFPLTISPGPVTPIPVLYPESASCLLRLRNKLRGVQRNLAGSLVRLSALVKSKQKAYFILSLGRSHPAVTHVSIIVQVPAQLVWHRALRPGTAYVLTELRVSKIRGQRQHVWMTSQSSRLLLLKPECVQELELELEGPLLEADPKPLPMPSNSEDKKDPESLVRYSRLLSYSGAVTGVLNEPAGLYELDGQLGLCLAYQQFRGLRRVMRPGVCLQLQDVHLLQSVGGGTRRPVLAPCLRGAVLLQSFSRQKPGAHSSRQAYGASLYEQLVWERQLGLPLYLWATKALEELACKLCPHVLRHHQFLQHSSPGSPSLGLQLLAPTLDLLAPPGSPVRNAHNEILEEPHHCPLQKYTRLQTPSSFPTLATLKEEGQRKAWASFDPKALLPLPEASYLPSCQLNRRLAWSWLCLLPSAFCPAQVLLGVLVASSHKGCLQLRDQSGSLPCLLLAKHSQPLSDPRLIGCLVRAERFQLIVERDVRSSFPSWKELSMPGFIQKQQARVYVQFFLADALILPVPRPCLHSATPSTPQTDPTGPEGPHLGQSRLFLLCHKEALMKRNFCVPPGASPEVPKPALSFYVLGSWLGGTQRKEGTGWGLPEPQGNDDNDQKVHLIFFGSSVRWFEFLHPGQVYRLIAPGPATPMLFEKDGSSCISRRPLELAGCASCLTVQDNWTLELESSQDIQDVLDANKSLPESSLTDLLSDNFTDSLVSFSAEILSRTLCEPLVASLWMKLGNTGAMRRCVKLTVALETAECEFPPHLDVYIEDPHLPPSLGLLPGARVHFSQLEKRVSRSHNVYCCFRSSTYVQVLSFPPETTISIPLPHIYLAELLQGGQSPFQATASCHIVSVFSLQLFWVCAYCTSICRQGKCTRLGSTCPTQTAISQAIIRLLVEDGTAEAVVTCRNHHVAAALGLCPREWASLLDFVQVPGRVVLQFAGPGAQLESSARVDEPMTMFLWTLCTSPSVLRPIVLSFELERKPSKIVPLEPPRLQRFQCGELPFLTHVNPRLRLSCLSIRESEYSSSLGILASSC
# T2: TwinStrep-GFP-TPP1 OB+RD (aa 1–251) (human, UniProt Q96AP0 1-251)
# T2 sequence: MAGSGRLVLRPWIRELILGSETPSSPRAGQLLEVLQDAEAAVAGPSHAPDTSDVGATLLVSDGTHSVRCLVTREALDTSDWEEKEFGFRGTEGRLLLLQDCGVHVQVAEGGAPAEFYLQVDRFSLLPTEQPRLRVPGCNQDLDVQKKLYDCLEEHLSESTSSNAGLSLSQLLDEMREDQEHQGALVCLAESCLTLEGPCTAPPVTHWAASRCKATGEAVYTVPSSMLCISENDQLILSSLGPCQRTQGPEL
# What was measured:
# His6-MBP-Ctc1 [1] = target: T1, His6-MBP-Ctc1; assay: cryo-EM structure
# His6-MBP-Ctc1 [2] = target: T1, His6-MBP-Ctc1; assay: cryo-EM structure; remark: listed apart in the source
# [3] = target: T2, TwinStrep-GFP-TPP1 OB+RD (aa 1–251); assay: cryo-EM structure
# His6-MBP-Ctc1/Stn1/Ten1 [4] = target: T3, His6-MBP-Ctc1/Stn1/Ten1 (human, UniProt Q2NKJ3;Q9H668;Q86WV5); assay: SEC
# T3 sequence (Q86WV5 whole entry, one chain of several): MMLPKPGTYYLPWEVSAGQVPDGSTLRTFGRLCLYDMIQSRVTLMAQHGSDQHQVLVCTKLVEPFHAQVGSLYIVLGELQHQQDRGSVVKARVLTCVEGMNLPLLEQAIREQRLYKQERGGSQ
# [5] = target: CST with the His6-MBP tag cleaved (human, UniProt Q2NKJ3;Q9H668;Q86WV5); assay: negative-stain EM
# Chain of CST with the His6-MBP tag cleaved (Q86WV5 whole entry, one chain of several): as above
# His6-MBP-Ctc1/Stn1/Ten1 [6] = target: T3, His6-MBP-Ctc1/Stn1/Ten1; assay: cryo-EM structure
binder,measurement,setting,value
Stn1 (natural protein) MQPGSSRCEEETPSLLWGLDPVFLAFAKLYIRDILDMKESRQVPGVFLYNGHPIKQVDVLGTVIGVRERDAFYSYGVDDSTGVINCICWKKLNTESVSAAPSAARELSLTSQLKKLQETIEQKTKIEIGDTIRVRGSIRTYREEREIHATTYYKVDDPVWNIQIARMLELPTIYRKVYDQPFHSSALEKEEALSNPGALDLPSLTSLLSEKAKEFLMENRVQSFYQQELEMVESLLSLANQPVIHSASSDQVNFKKDTTSKAIHSIFKNAIQLLQEKGLVFQKDDGFDNLYYVTREDKDLHRKIHRIIQQDCQKPNHMEKGCHFLHILACARLSIRPGLSEAVLQQVLELLEDQSDIVSTMEHYYTAF,binding result,His6-MBP-Ctc1 [1],binds
"POT1(ESDL) (natural protein, phosphorylated in insect cells (sites not identified)) MSLVPATNYIYTPLNQLKGGTIVNVYGVVKFFKPPYLSKGTDYCSVVTIVDQTNVKLTCLLFSGNYEALPIIYKNGDIVRFHRLKIQVYKKETQGITSSGFASLTFEGTLGAPIIPRTSSKYFNFTTEDHKMVEALRVWASTHMSPSWTLLKLCDVQPMQYFDLTCQLLGKAEVDGASFLLKVWDGTRTPFPSWRVLIQDLVLEGDLSHIHRLQNLTIDILVYDNHVHVARSLKVGSFLRIYSLHTKLQSMNSENQTMLSLEFHLHGGTSYGRGIRVLPESNSDVDQLKKDLESANLTANQHSDVICQSEPDDSFPSSGSESDLVSLYEVERCQQLSATILTDHQYLERTPLCAILKQKAPQQYRIRAKLRSYKPRRLFQSVKLHCPKCHLLQEVPHEGDLDIIFQDGATKTPDVKLQNTSLYDSKIWTTKNQKGRKVAVHFVKNNGILPLSNECLLLIEGGTLSEICKLSNKFNSVIPVRSGHEDLELLDLSAPFLIQGTIHHYGCKQCSSLRSIQNLNSLVDKTSWIPSSVAEALGIVPLQYVFVMTFTLDDGTGVLEAYLMDSDKFFQIPASEVLMDDDLQKSVDMIMDMFCPPGIKIDAYPWLECFIKSYNVTNGTDNQICYQIFDTTVAEDVI",binding result,His6-MBP-Ctc1 [2],binds
same,binding result,[3],binds
POT1(SED)/GFP-TPP1 (complex) chain 1: MSLVPATNYIYTPLNQLKGGTIVNVYGVVKFFKPPYLSKGTDYCSVVTIVDQTNVKLTCLLFSGNYEALPIIYKNGDIVRFHRLKIQVYKKETQGITSSGFASLTFEGTLGAPIIPRTSSKYFNFTTEDHKMVEALRVWASTHMSPSWTLLKLCDVQPMQYFDLTCQLLGKAEVDGASFLLKVWDGTRTPFPSWRVLIQDLVLEGDLSHIHRLQNLTIDILVYDNHVHVARSLKVGSFLRIYSLHTKLQSMNSENQTMLSLEFHLHGGTSYGRGIRVLPESNSDVDQLKKDLESANLTANQHSDVICQSEPDDSSPESDSVSLYEVERCQQLSATILTDHQYLERTPLCAILKQKAPQQYRIRAKLRSYKPRRLFQSVKLHCPKCHLLQEVPHEGDLDIIFQDGATKTPDVKLQNTSLYDSKIWTTKNQKGRKVAVHFVKNNGILPLSNECLLLIEGGTLSEICKLSNKFNSVIPVRSGHEDLELLDLSAPFLIQGTIHHYGCKQCSSLRSIQNLNSLVDKTSWIPSSVAEALGIVPLQYVFVMTFTLDDGTGVLEAYLMDSDKFFQIPASEVLMDDDLQKSVDMIMDMFCPPGIKIDAYPWLECFIKSYNVTNGTDNQICYQIFDTTVAEDVI chain 2: MAGSGRLVLRPWIRELILGSETPSSPRAGQLLEVLQDAEAAVAGPSHAPDTSDVGATLLVSDGTHSVRCLVTREALDTSDWEEKEFGFRGTEGRLLLLQDCGVHVQVAEGGAPAEFYLQVDRFSLLPTEQPRLRVPGCNQDLDVQKKLYDCLEEHLSESTSSNAGLSLSQLLDEMREDQEHQGALVCLAESCLTLEGPCTAPPVTHWAASRCKATGEAVYTVPSSMLCISENDQLILSSLGPCQRTQGPEL,binding result,His6-MBP-Ctc1/Stn1/Ten1 [4],binds
"POT1(SED)/GFP-TPP1 treated with λ protein phosphatase (complex, dephosphorylated with λ protein phosphatase | dephosphorylated with λ protein phosphatase) chain 1: MSLVPATNYIYTPLNQLKGGTIVNVYGVVKFFKPPYLSKGTDYCSVVTIVDQTNVKLTCLLFSGNYEALPIIYKNGDIVRFHRLKIQVYKKETQGITSSGFASLTFEGTLGAPIIPRTSSKYFNFTTEDHKMVEALRVWASTHMSPSWTLLKLCDVQPMQYFDLTCQLLGKAEVDGASFLLKVWDGTRTPFPSWRVLIQDLVLEGDLSHIHRLQNLTIDILVYDNHVHVARSLKVGSFLRIYSLHTKLQSMNSENQTMLSLEFHLHGGTSYGRGIRVLPESNSDVDQLKKDLESANLTANQHSDVICQSEPDDSSPESDSVSLYEVERCQQLSATILTDHQYLERTPLCAILKQKAPQQYRIRAKLRSYKPRRLFQSVKLHCPKCHLLQEVPHEGDLDIIFQDGATKTPDVKLQNTSLYDSKIWTTKNQKGRKVAVHFVKNNGILPLSNECLLLIEGGTLSEICKLSNKFNSVIPVRSGHEDLELLDLSAPFLIQGTIHHYGCKQCSSLRSIQNLNSLVDKTSWIPSSVAEALGIVPLQYVFVMTFTLDDGTGVLEAYLMDSDKFFQIPASEVLMDDDLQKSVDMIMDMFCPPGIKIDAYPWLECFIKSYNVTNGTDNQICYQIFDTTVAEDVI chain 2: MAGSGRLVLRPWIRELILGSETPSSPRAGQLLEVLQDAEAAVAGPSHAPDTSDVGATLLVSDGTHSVRCLVTREALDTSDWEEKEFGFRGTEGRLLLLQDCGVHVQVAEGGAPAEFYLQVDRFSLLPTEQPRLRVPGCNQDLDVQKKLYDCLEEHLSESTSSNAGLSLSQLLDEMREDQEHQGALVCLAESCLTLEGPCTAPPVTHWAASRCKATGEAVYTVPSSMLCISENDQLILSSLGPCQRTQGPEL",binding result,His6-MBP-Ctc1/Stn1/Ten1 [4],binds
"His6-POT1(ESDL)/TwinStrep-GFP-TPP1 (complex, phosphorylated in insect cells (sites not identified)) chain 1: MSLVPATNYIYTPLNQLKGGTIVNVYGVVKFFKPPYLSKGTDYCSVVTIVDQTNVKLTCLLFSGNYEALPIIYKNGDIVRFHRLKIQVYKKETQGITSSGFASLTFEGTLGAPIIPRTSSKYFNFTTEDHKMVEALRVWASTHMSPSWTLLKLCDVQPMQYFDLTCQLLGKAEVDGASFLLKVWDGTRTPFPSWRVLIQDLVLEGDLSHIHRLQNLTIDILVYDNHVHVARSLKVGSFLRIYSLHTKLQSMNSENQTMLSLEFHLHGGTSYGRGIRVLPESNSDVDQLKKDLESANLTANQHSDVICQSEPDDSFPSSGSESDLVSLYEVERCQQLSATILTDHQYLERTPLCAILKQKAPQQYRIRAKLRSYKPRRLFQSVKLHCPKCHLLQEVPHEGDLDIIFQDGATKTPDVKLQNTSLYDSKIWTTKNQKGRKVAVHFVKNNGILPLSNECLLLIEGGTLSEICKLSNKFNSVIPVRSGHEDLELLDLSAPFLIQGTIHHYGCKQCSSLRSIQNLNSLVDKTSWIPSSVAEALGIVPLQYVFVMTFTLDDGTGVLEAYLMDSDKFFQIPASEVLMDDDLQKSVDMIMDMFCPPGIKIDAYPWLECFIKSYNVTNGTDNQICYQIFDTTVAEDVI chain 2: MAGSGRLVLRPWIRELILGSETPSSPRAGQLLEVLQDAEAAVAGPSHAPDTSDVGATLLVSDGTHSVRCLVTREALDTSDWEEKEFGFRGTEGRLLLLQDCGVHVQVAEGGAPAEFYLQVDRFSLLPTEQPRLRVPGCNQDLDVQKKLYDCLEEHLSESTSSNAGLSLSQLLDEMREDQEHQGALVCLAESCLTLEGPCTAPPVTHWAASRCKATGEAVYTVPSSMLCISENDQLILSSLGPCQRTQGPEL",binding result,[5],binds
same,binding result,His6-MBP-Ctc1/Stn1/Ten1 [6],binds
